Paper PMC6816459 (Methods in molecular biology (Clifton, N.J.), 2019)

Target: the molecule itself

B1: C. elegans Vps4 (enzyme, UniProt Q9BL83 1-430, looked up)
chain: MSVPALQKAIELVTKATEEDTAGRYDQALRLYDQAIEYFLHAIKYESQGDKQRNAIRDKVGQYLNRAEQIKTHLKDGKTQKKPVKDGKDDSDEDEDKKKFQDKLSGAIVMEKPNVKWTDIAGLEGAKEALKEAVILPIKFPQLFTGNRKPWQGILLFGPPGTGKSYIAKAVATEAGESTFFSISSSDLMSKWLGESEKLVKNLFALAREHKPSIIFIDEIDSLCSARSDNESESARRIKTEFMVQMQGVGLNNDGILVLGATNIPWILDSAIRRRFEKRIYIPLPDIHARKEMFRIDVGKNYNTLTDQDFKVLAERCEGYSGYDISILVKDALMQPVRRVQSATHFKHVSGPSPKDPNVIAHDLLTPCSPGDPHAIAMNWLDVPGDKLANPPLSMQDISRSLASVKPTVNNTDLDRLEAFKNDFGQDGQE
- stoichiometry N: 6
